Key:
[1] = target: T1, recombinant human Activin A (Homo sapiens, UniProt P08476); test: MSD platform-based binding assay to plate-bound Activin A; settings: anti-human Fc detection
T1 sequence (P08476 311-426): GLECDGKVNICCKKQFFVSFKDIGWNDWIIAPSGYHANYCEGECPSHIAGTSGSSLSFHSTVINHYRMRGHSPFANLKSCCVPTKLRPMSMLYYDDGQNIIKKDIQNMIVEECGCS
Procedure: The binding by a recombinant human ACVR2B-Fc fusion protein to activin A (also known as Inhibin beta A) was characterized using a Meso Scale Discovery (MSD) platform-based assay. Briefly, Activin A was coated on a plate and 8× serial dilutions of the purified recombinant human ACVR2B-Fc fusion protein were also added in a series of wells. The protein captured by the plate-bound Activin A was detected using an anti-human Fc antibody and a SULFO-TAG conjugated secondary antibody.
(§1) The binding to Activin A by the GLP-1-Fc-ACVR2B fusion protein produced using the mmRNA constructs was investigated using a Meso Scale Discovery (MSD) platform-based assay. Briefly, HEK293T cells were transfected with each mRNA construct using lipofectamine 2000, and culture supernatants were collected after 48 hours. Activin A was coated on a plate, and 3× serial dilutions of the culture supernatants were added to the plate for capture by the plate-bound Activin A. The protein captured by the plate-bound Activin A was detected using an anti-human Fc antibody and a SULFO-TAG conjugated secondary antibody. The MSD signals generated by the culture supernatants of HEK293T cells transfected with different mmRNA constructs were plotted as a line graph.

recombinant human GDF-8 = target: T2, recombinant human GDF-8 (Homo sapiens, UniProt O14793); test: MSD platform-based binding assay to plate-bound GDF-8; settings: anti-human Fc detection
T2 sequence (O14793 267-375): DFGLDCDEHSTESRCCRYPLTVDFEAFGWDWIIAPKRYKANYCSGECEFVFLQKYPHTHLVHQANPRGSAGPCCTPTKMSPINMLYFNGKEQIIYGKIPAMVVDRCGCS
Procedure: The binding by a recombinant human ACVR2B-Fc fusion protein to GDF-8 (also known as myostatin) was characterized using a Meso Scale Discovery (MSD) platform-based assay. Briefly, GDF-8 was coated on a plate and 8× serial dilutions of the purified recombinant human ACVR2B-Fc fusion protein were also added in a series of wells. The protein captured by the plate-bound GDF-8 was detected using an anti-human Fc antibody and a SULFO-TAG conjugated secondary antibody.
as §1, with “GDF-8” for “Activin A”, “GDF-8.” for “Activin A.”

GLP-1-Fc-ACVR2B: GLP-1 fused to extracellular domain of ACVR2B via IgG1 Fc domain; SEQ ID NO: 154; tested as culture supernatant of mmRNA-transfected HEK293T cells
binding to Activin A [1]: binds to the human Activin A | binding to GDF-8 (recombinant human GDF-8): binds to the human GDF-8

Reference: patent US12145975B2, “Fusion proteins for the treatment of cardiometabolic diseases” (Shattuck Labs, Inc., priority 2022, dated 2024)
